{"source": "a protein production outcome set (Wang et al. 2014)"}
{"assay": "label from the status in PepcDB records"}
{"sequence": "MSKLEFLAFYDELTGLPNKNSLIRWLNLKVSQMDCIDTYLIFLEVRDLEKLNVTYGYDLVDELIIHISKRIKDIAGEGNKAFKIGFDRFAIICKSENISDFIERMLSQLLLPYNVNGNLIRVNFNIGAAQIENSNEAAANLMRRCDLALIKAKEEGLNEYVIFKPSIEIQTLEHHHHHH", "protein production": "not failed"}
{"sequence": "MSKLIGMLLNDKQVYVGPFLRGKKGILLAVESLKGNTFDDKQWVVDRAQKKSEREMELKVPYEQSLKEIADKFQSYNFRGSGFVAFSTQNVTISGICKDVIDESVAMPPSVGPRMPIYPLGSPGIRKSMFYG", "protein production": "not failed"}
{"sequence": "MSKLKTIALTASGLSVCPGFLYAQNTSSHQIGLAIMRLNSSILDLPPTKQYFQSGSLWSELRQGFRMGEVNPELVRRHESKFIASHSYFNRVINRSRPYMYHIANEVKKRNMPAEAALLPFIESAFVTKAKSHVGASGLWQFMPATGRHYGLEKTPVYDGRHDIYAATDAALNYLQYLYGLFGDWPLAFAAYNWGEGNVGRAINRARAQGLEPTYENLRMPNETRNYVPKLLAVRNIIAAPQSFGMNISDIDNKPYFQAVEPDRPLDNEAIARLAGITQSELLALNPAFNVPAFIPKSKRKLLLPVASVQTFQSNYLNAAPDSLFSWEVYTPAAKTSLSDISTATGMSIADIKRLNNLNGNLVNAGRSILVAKNGKTLQTASESVVSIDIDNTPNTYRSNMPAGTVNVGIARIRPAAAQTADITVAPLPQKTVRTEPDPLVRIAEPALATAAAQPQTEKQTAMPSETQTATLAQIVPQNDMQAADELMQLVARNNLRRQAEETISAVIGTPDTVAEHNISSSPQHTVAADGKRRVRLETRVAKAADGEAEISPLHASIHRVVEGDTLFNIAKRYNVSVADLIVANNIKGNTIQKGQVLRLAQAAPAQTRIEKVSYTARKGDTFKSIAARFNIHIDDIRRLNPNLNTINPGQRVKLIGS", "protein production": "failed"}
{"sequence": "MSKMRFFALQELSNRKPLEITTPSNKLSDYYASHVFDRKKMQEYLPKEAYKAVVDATEKGTPISREMADLIANGMKSWAKSLNVTHYTHWFQPLTDGTAEKHDGFIEFGEDGEVIERFSGKLLIQQEPDASSFPNGGIRNTFEARGYTAWDGSSPAFVVDTTLCIPTIFISYTGEALDYKTPLLKALAAVDKAATEVCQLFDKNITRVFTNLGWEQEYFLVDTSLYNARPDLRLTGRTLMGHSSAKDQQLEDHYFGSIPPRVTAFMKELEIECHKLGIPVKTRHNEVAPNQFELAPIFENCNLANDHNQLVMDLMKRIARKHHFAVLFHEKPYNGVNGSGKHNNWSLCTDTGINLFAPGKNPKGNMLFLTFLVNVLMMVHKNQDLLRASIMSAGNSHRLGANEAPPAILSIFLGSQLSATLDEIVRQVTNSKMTPEEKTTLKLGIGRIPEILLDTTDRNRTSPFAFTGNRFEFRAAGSSANCAAAMIAINAAMANQLNEFKASVDKLMEEGIGKDEAIFRILKENIIASELIRFEGDGYSEEWKQEAARRGLTNICHVPEALMHYMDNQSRAVLIGERIFNETELACRLEVELEKYTMKVQIESRVLGDLAINHIVPIAVSYQNRLLENLCRMKEIFSEEEYEVMSADRKELIKEISHRVSAIKVLVRDMTEARKVANHKENFKEKAFAYEETVRPYLESIRDHIDHLEMEIDDEIWPLPKYRELLFTK", "protein production": "not failed"}
{"sequence": "MSKPAITLWSDAHFFSPYVLSAWVALQEKGLSFHIKTIDLDSGEHLQPTWQGYGQTRRVPLLQIDDFELSESSAIAEYLEDRFAPPTWERIYPLDLENRARARQIQAWLRSDLMPIREERPTDVVFAGAKKAPLTAEGKASAEKLFAMAEHLLVLGQPNLFGEWCIADTDLALMINRLVLHGDEVPERLVDYATFQWQRASVQRFIALSAKQSG", "protein production": "not failed"}
{"sequence": "MSKTPRIRIPPEVRQYVFQRDKFQCQSCGKTGLETNLTIDHIIPLARGGQNDISNLHTLCFDCNRCKTDKLDSRFRRHFEI", "protein production": "failed"}
{"sequence": "MSKVVGLSSKKSRWLLQSLRDQQRHSLGTGFESANILLSPKYHLKDKDLRKIHKAARVGDAARVQQLLLGKCGVNDKDKKKRWQGPRDGGCGGGGACVEESPHTTALHIACAYGHPKVVMALIEGRCEINATDSEECTSLVKAVQCQEEECATILLENGADPNIVDAQGNSALHYAVYYKNTSLAAKLLDHEVNIEATNKVEILHQRGVNQSTIVAKCVENPGLQSTGTIFCPHLTPLPEQGLTSSLKLTVVLNLAGGGGGEVSRGGRETETDTGGFTPLLLAVSENKLQIAKFLLMKNANIHAVDNQKRTALMHAVSHDSTHLVRFVLQQGVDLFLNDAFGLTAIDYAADFKYNTKVKQHQGLEKKSKSVSENLPLIRIGVDGLLQVNGQAVEEGRKQEWSEWGASESLQAAALDGGDLTSPLPRRRNKQAGKPGTQESPSVDSKEQDGGSDLNIKEENKKGYEEWSRDFVNELTSEKFGSVACDLLPVKDSWSLNGMDPNKGRPAKRKSKEKHKVEASLMMAEHGIDL", "protein production": "failed"}
{"sequence": "MSLAADKVDILYLEDDEVDIQSVERVFHKISSLIKIEIAKSGNQALDMLYGRNKENKIHPKLILLDINIPKMNGIEFLKELRDDSSFTDIEVFVLTAAYTSKDKLAFESLNIRGHLIKPLDYGEAIKLFWILQSMEGHHHHHH", "protein production": "not failed"}
{"sequence": "MSLAEFRAQYLVRFWSPIPALLALGVASAYYFAITGTFWAVTGEFTRWGGHIAALLGFSPQQWSYFQLIGLNGSPLERIDGVMIIGMFAGALCAALWAGNVQLRWPTSRRRLAQGLIGGIIAGFGARLAMGCNLAAFFTGIPMFSLHAWAFMLTTVIGAWIGVKLCLLPFLRTPLRLDTAPSSLFADTASLARRARLQNRLGLLIAVLVLGFAAWRFETSLVLGLAVLFGVFFGAVIERGQICFTSAARDLWTTGRTRIAYGILLGMVVACLGTFGAIALGATPKIFWMGPNAALGGLLFGIGIVLAGGCETGWMYRAMEGQVHFWIVGIGNVIGGTLVAIFWDELGGTLALPYPKINLLEYLGAGTGLLLSLAGLMLAMLLVYLNARRFAVREGLAR", "protein production": "failed"}
{"sequence": "MSLAEPRYKADIGGGSLKLPESRIIAGLLLEGVTEDQWRHAIEVENVLQRRSPGTAKRQSSLMRNRLETMGPELWQMVRDGSTQVAIQAVFAAAIKHSTLLGDFLDLVVRDQFRMFRPDLPRKMWDQYLEQCRNRDPLMPVWQDSTANKLADCVYRILVEVGYITDSKTYRLKSVRISGEVMSYLRENNEQYVIRCIQVSIEGHHHHHH", "protein production": "not failed"}
{"sequence": "MSLAEVGSKSVLFVCLGNICRSPIAEAVFRKLVTDEKVSDNWAIDSSAVSDWNVGRPPDPRAVSCLRNHGISTAHKARQITKEDFATFDYILCMDESNLRDLNRKSNQVKNCKAKIELLGSYDPQKQLIIEDPYYGNDSDFEVVYQQCLRCCKAFLEKTYEGHHHHHH", "protein production": "not failed"}
{"sequence": "MSLAHERSSGIYLVAASAVLWSTAGLFVRMADMDMWSMVAWRSAFTFLALGAFFLLRNRFARQRSSMSFGFPGIAGCLVSAIAAITYIASLRWTTVANVMTIYATLPFIVAGIAFVCLRDRVTYRFVIAGCLAFVGVLISVGAAVSHQDMLGIFAAFIMTTGCATQIVIAKRFPDMDTTLMTALAALICICVALPLMQFEIPAPTQIIACALYGVLTTAFGYIFLLQGSRRINAGEAGLISMLDVILGPVWVWLFYNEVISPIVLTGGGIVIMSVAWYLAGDRRAATAP", "protein production": "failed"}
{"sequence": "MSLALYLGNKRMNDMYYTIGQVAKMQHLTISQIRYYDKQGLFPFLQRNEKGDRIFNEEALKYLEMILCLKNTGMPIQKIKQFIDWSMEGDSTILHRLKLMKQQEANVLQLIQDTEKNLKKIQQKIAKYEDEISSANATTKEGHHHHHH", "protein production": "not failed"}
{"sequence": "MSLARCERLRGAALRDVLGRAQGVLFDCDGVLWNGERAVPGAPELLERLARAGKAALFVSNNSRRARPELALRFARLGFGGLRAEQLFSSALCAARLLRQRLPGPPDAPGAVFVLGGEGLRAELRAAGLRLAGDPSAGDGAAPRVRAVLVGYDEHFSFAKLREACAHLRDPECLLVATDRDPWHPLSDGSRTPGTGSLAAAVETASGRQALVVGKPSPYMFECITENFSIDPARTLMVGDRLETDILFGHRCGMTTVLTLTGVSRLEEAQAYLAAGQHDLVPHYYVESIADLTEGLEDEGHHHHHH", "protein production": "not failed"}
{"sequence": "MSLARPLSFHEDRLFPSDPATRSYARGLYALVKDLPIISPHGHTDPSWFATNAPFQDATDLLLAPDHYLFRMLYSQGVSLDALKVRSKAGVPDTDPREAWRVFASHFYLFRGTPSWVWLNHVFSQVFGFTEFLEASNADDYFDRITAALATDAFRPRALFDRFNIETLATTEGPHESLQHHAAIRESGWGGHVITAYRPDAVIDFEDERSPRAFERFAETSGQDVYSWKSYLEAHRLRRQAFIDAGATSSDHGHPTAATADLSDVEAEALFNSLVKGDVTPEKAELFRAQMLTEMAKMSLDDGLVMQIHPGSHRNHNVGLLNSHGRDKGADIPMRTEYVDALKPLLTRLGNDPRLSIILFTLDETTYSRELAPLAGHYPVLKLGPSWWFHDSPEGMMRFREQVTETAGFYNTVGFNDDTRAFLSIPARHDVARRVDSAFLARMVAEHRMDLVEAEELIVDLTYNLPKKAYKLDQRPDWARPATLRAAAEEGHHHHHH", "protein production": "not failed"}
{"sequence": "MSLARQVTAFNTGWQFKKGPFATDPMRAASQWDGKWETVEIPHTWNAMDMQVQSGSFYEGAGYYRKTQFFPHDLEGKRVFLRFEGVGACAEVYVNGKLAGTHKGGYSAFACEIGTALKLGAENEIIVKADNKARPDVIPVNQNLFGVYGGIYRPVWLIVTEQNNITVTDCASPGVYITQKDVSKKSADITVKVKLDNAGLQPAAVTLENTIYTQEGQKVGTHSRSFDLSPQGTQTYLSTFKLKNPHLWQGRKDPYLYKVVCRLMADGKVIDEVVQPLGVRKYEIVAGKGFFLNGEKYSMYGVTRHQDWWGLGSALKNEHHDFDLAAIMDVGATTVRFAHYQQSDYLYSRCDTLGLIIWAEIPCVNRVTGYETENAQSQLRELIRQSFNHPSIYVWGLHNEVYQPHEYTAALTRSLHDLAKTEDPDRYTVSVNGYGHMDHPVNLNADIQGMNRYFGWYEKKIQDIKPWVEQLEKDYPYQKLMLTEYGADANLAHQTEYLGDALNWGKPFYPETFQTKTHEYQWSIIKDHPYIIASYLWNMFDFAVPMWTRGGVPARNMKGLITFDRKTKKDSYFWYKANWSEEPVLYLTQRRNADREKRTTAVTVYSNIGTPKVYLNGQELSGIRNGYTDVHYVFDNVSLADGKNILKAVVSTKGKEYTDEIEWNYSGEKNREIDSYENKNEHSGEGHHHHHH", "protein production": "not failed"}
{"sequence": "MSLDCRVRESIQEEAKGIVAPPELKEKVIVQIKMNQGGRKRKKRLIAGVLAAAFLIPTTGFAYQSIMADGIYGSFENLKKHAGTMTLEAYMRFSAKLSEAKDEMGTKEYEVFTKELKKLTNAKLAYGDSNGNIDYDALSSEKREEMKKVSMGLQPYFDKLNGHKSSKEVLTQEEFDRYMEALMTHEIVRVKTKSTGAIKVEEIPEAYKERFIKAEQFMEYVDEKVR", "protein production": "not failed"}
{"sequence": "MSLDLPEGHPLKTLYQENKEIMKDAEMLNLYAKTLATTKDERMREEILGVLEEIVSSLRMVGFTHYNREEMLIFPYIERRGLTVIATVLWTKHDEIRAMIKQLAELLRKREEMPWEEFVEKFKAKAGEVAFALSDMVFRENNIFYPTLKALLSEGEWKAIKMQEDEIGYYKVKPPEWDPGEDVKPLHPWEINPELNVEQLLTLPKEVQQALRGQPLEFDKTQLKREEDIDLGTGYLNIEELKAIFEALPVDVTFIDKDDRVRFFSPGERIFTRTPSVLGRPVQLCHPPKSVYVVNKILKAFKEGRKKEATFWLRLREKYVYIKYVPLFNEKGEYIGTLEMTMDIAPYKKIEGEKRLLDWRDEGHITITTDPNSSSVDKLAAALEHHHHHH", "protein production": "not failed"}
{"sequence": "MSLDSDVIVDRRRMRRKLTFWRVAAVLVAIVAVVAIGAMVSPAGRGALTSTGSIARIKIEGLIRSNDERVQALDRLGKSSYSAVIVHINSPGGTTAGSEELHDALARLKAKKPMVVVVEGLAASGGYIAALASEHIVAQQTSLVGSIGVLFQYPNVSELLKTVGVKVEEVKSSPLKAAPNGFEPTSPEARAAIEALVKDSYAWFRGMVQQSRKMTDDQLNVVADGRVFTGRQAVGLKLIDELGDERTAIAWLEKAKNVKAGLPVRDYKLAPQFGDLTFLRAAASVAFDAAGLGVIARRVEQTGAMQSVERLGLDGMLALWAPSAGQ", "protein production": "failed"}
